Test results: patent publication US20220380475A1 (SORRISO PHARMACEUTICALS, published 2022)

Columns and labels:
[1] = target: T1, membrane-bound human IL-6R on TF-1 cells (human, UniProt P08887 20-468); experiment: cell-based or functional assay
T1 sequence: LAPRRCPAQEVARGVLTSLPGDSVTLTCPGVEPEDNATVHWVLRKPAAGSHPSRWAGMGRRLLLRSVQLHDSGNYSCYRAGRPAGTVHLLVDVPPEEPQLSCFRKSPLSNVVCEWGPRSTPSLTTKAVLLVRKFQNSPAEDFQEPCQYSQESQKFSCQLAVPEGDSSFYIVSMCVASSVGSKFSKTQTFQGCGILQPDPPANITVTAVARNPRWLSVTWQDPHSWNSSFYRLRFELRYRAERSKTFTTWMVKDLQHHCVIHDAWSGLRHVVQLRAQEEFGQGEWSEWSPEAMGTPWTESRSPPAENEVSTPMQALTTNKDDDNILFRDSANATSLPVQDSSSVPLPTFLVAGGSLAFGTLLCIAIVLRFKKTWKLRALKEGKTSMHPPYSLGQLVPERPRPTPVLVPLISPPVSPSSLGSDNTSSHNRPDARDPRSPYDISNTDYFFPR

[2] = target: T2, recombinant soluble human IL-6R (human, UniProt P08887 20-365); experiment: gp130 ELISA (competition), second assay; reference 7F6
T2 construct: also called sIL-6R; shIL-6R
T2 sequence: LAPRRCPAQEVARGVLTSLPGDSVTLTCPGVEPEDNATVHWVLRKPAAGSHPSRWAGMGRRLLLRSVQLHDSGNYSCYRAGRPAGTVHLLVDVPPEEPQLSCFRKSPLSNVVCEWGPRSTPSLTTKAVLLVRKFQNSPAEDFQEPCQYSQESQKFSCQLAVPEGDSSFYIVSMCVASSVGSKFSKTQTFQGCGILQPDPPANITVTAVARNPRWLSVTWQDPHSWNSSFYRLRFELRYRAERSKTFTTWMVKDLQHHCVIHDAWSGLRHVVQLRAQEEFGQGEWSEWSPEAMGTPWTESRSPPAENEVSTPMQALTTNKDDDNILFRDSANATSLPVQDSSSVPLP
Description: (§1) Briefly, Maxisorp 96-well plates were coated overnight with 50 μl/well 0.5 μg/ml gp130 then blocked. ICVDs were serially diluted and mixed 1:1 with 100 ng/ml recombinant human IL-6 then 1:1 with 40 ng/ml recombinant human sIL-6R, and incubated for 1 hour to allow binding before adding to the gp130-coated plates. Bound IL-6R was detected with 50 μl/well 0.250 μg/ml BAF227 and then 50 μl/well 1/1000 diluted Extravidin-HRP and the level of neutralisation by the ICVD of IL-6R binding to IL-6/gp130 was determined.
(§2) A separate assay was performed on 21E6 and 7F6 using the same protocol as above with the exception that the ICVD/IL-6R/IL-6 where only incubated with shaking for 10 min before being added to the assay plates.

[3] = target: T2, recombinant soluble human IL-6R; experiment: gp130 ELISA (competition), second assay, 10 min pre-incubation; 20 ng/mL IL6R, 100 ng/mL IL6
Description: as §1, §2

[4] = target: T2, recombinant soluble human IL-6R; experiment: standard gp130 ELISA (competition)
[5] = target: T2, recombinant soluble human IL-6R; experiment: cell-based or functional assay
[6] = target: T1, membrane-bound human IL-6R on TF-1 cells; experiment: cell-based or functional assay; remark: listed apart in the source
[7] = target: T2, recombinant soluble human IL-6R; experiment: standard gp130 ELISA (competition), Experiment 1; 10 ng/mL IL-6R, 50 ng/mL IL-6
Description: The inhibitory potency and efficacy (maximal inhibition) of the E. coli-produced 5G9 derivatives were confirmed in vitro in the gp130 ELISA, TF-1 cell and M1 cell functional assays measuring responses mediated via human IL-6R. The gp130 assays follow the standard protocol with a final assay concentration of 10 ng/mL IL-6R and 50 ng/mL IL-6.

B1: 21E6 (VHH)
VHH: EVQLVESGGGLVLAGGSTRLTCLASGSISSINVIGWYRQAPGKQRELVAMIGRGEGANYGDFAKGRFTISRDNSKNTVYLQMNSLKPEDTAVYYCYADYEDRDSPLNGSWGQGTQVTVSS
notes: Family-expansion clone related to 7F6 (Q13L and F106L); Expressed from a phagemid vector and purified
IC50 in TF1 assay (separate assay, raised background) [1]: 11 nM | fold less potent than 7F6 [2]: ~2 fold | IC50 [3]: 0.3 nM

B2: ID-75V (VHH)
VHH: DVQLVESGGGLVQAGGSTRLTCKASGSISNINSINVMAWYRQAPGKQRELVAIIGKGGGTNYADFVKGRFTISRDAAKNTVNLQMNSLKPEDTAVYYCYADYEDHDSPFNASWGQGTQVTVSS
notes: also called 5G9 + E1D, F29S, R105H
binding result [4]: binds

B3: ID-114V (VHH)
VHH: EVQLVESGGGLVQAGGSTRLTCKASGSISNINSINVMAWYRQAPGKQRELVAIIGKGGGTNYADFVKGRFTISRDAAKNTLYLQMNSLKPEDTAVYYCYADYEDHDSPFNASWGQGTQVTVSS
notes: E. coli-produced cis/trans potent 5G9 derivative; also called 5G9 + F29S, V81L, N82Y, R105H; not shown: C-terminal FLAG-6xHis
M1 cellular assay EC50 (20 ng/ml IL-6R, 100 ng/ml IL-6) [5]: 0.52 nM | TF-1 cell assay EC50 (5 ng/ml IL-6) [6]: 0.29 nM | EC50 [7]: 0.138 nM
